Assay results: the supplement of paper PMC7877785
± gives the uncertainty stated by the source.

Assay: self-splicing fitness, log relative to wild type (ln ratio); higher = more splicing; Tetrahymena group I intron in knt gene, E. coli kanamycin selection, DiMSum; sequences stand for … in CUCUCU…GGAGGGAAAAGUUAUCAGGCAUGCACCUGGUAGCUAGUCUUUAAACCAAUAGAUUGCAUCGGUUUAAAAGGCAAGACCGUCAAAUUGCGGGAAAGGGGUCAACAGCCGUUCAGUACCAAGUCUCAGGGGAAACUUUGAGAUGGCCUUGCAAAGGGUAUGGUAAUAAGCUGACGGACAUGGUCCUAACCACGCAGCCAAGUCCUAAGUCAACAGAUCUUCUGUUGAUAUGGAUGCAGUUCACAGACUAAAUGUCGGUCGGGGAAGAUGUAUUCUUCUCAUAAGAUAUAGUCGGACCUCUCCUUAAUGGGAGCUAGCGGAUGAAGUGAUGCAACACUGGAGCCGCUGGGAACUAAUUUGUAUGCGAAAGUAUAUUGAUUAGUUUUGGAGUACUCGUGGUCG
Procedure, shortened: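 Fitness was computed with DiMSum as the error-weighted combination of replicate fold changes, kanamycin versus none, each normalised to wild type. The library randomised all eight intron nucleotides of the P1ex region, with the intron placed in the knt kanamycin-resistance gene on pET-22b(+) in E. coli BL21(DE3). Six replicate transformations were grown overnight at 37°C or 30°C on LB agar with or without 25 μg/mL kanamycin, plus 100 μg/mL carbenicillin, 50 μM IPTG and 0.2% rhamnose. Pooled colonies were amplicon-sequenced on an Illumina HiSeq 2500.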

| Sequence | self-splicing fitness (ln) (30 °C) | self-splicing fitness (ln) (37 °C) |
| --- | --- | --- |
| UCGUAGCAAUAUUACGUCAG | -3.66 ± 0.48 | -1.89 ± 0.29 |
| UCGUAGCAAUAUUACGUCCU | -2.04 ± 0.21 | -1.63 ± 0.31 |
| UCGUAGCAAUAUUACGUUGG | -2.59 ± 0.17 | -0.973 ± 0.17 |
| UCUAAGCAAUAUUACGAACU | -2.55 ± 0.11 | -2.26 ± 0.15 |
| UCUAAGCAAUAUUACGAAGA | -1.29 ± 0.14 | -0.678 ± 0.13 |
| UCUAAGCAAUAUUACGAGUC | -3.41 ± 0.3 | -2.93 ± 0.3 |
| UCUAAGCAAUAUUACGCAUG | -1.88 ± 0.095 | -2.07 ± 0.12 |
| UCUAAGCAAUAUUACGCCAA | -1.47 ± 0.32 | -0.954 ± 0.23 |
| UCUAAGCAAUAUUACGCCAU | -3.76 ± 0.46 | -2.37 ± 0.42 |
| UCUAAGCAAUAUUACGCCGC | -2.69 ± 0.29 |  |
| UCUAAGCAAUAUUACGCCUC | -3.67 ± 0.35 | -2.98 ± 0.47 |
| UCUAAGCAAUAUUACGCGAU | -4.31 ± 0.33 | -3.83 ± 0.36 |
| UCUAAGCAAUAUUACGCGCC |  | -2.67 ± 0.38 |
| UCUAAGCAAUAUUACGCGGA | -2.69 ± 0.3 | -2.47 ± 0.24 |
| UCUAAGCAAUAUUACGCUGG | -2.53 ± 0.12 | -2.92 ± 0.24 |
| UCUAAGCAAUAUUACGGCUG | -0.983 ± 0.21 | -1.68 ± 0.24 |
| UCUAAGCAAUAUUACGGGCC | -3.14 ± 0.33 | -2.09 ± 0.33 |
| UCUAAGCAAUAUUACGGUGU | -1.75 ± 0.083 | -1.34 ± 0.093 |
| UCUAAGCAAUAUUACGUCAC | -2.47 ± 0.24 | 0.446 ± 0.28 |
| UCUAAGCAAUAUUACGUGAA | -1.68 ± 0.088 | -0.923 ± 0.099 |
| UCUAAGCAAUAUUACGUUAA | -3.72 ± 0.32 | -1.67 ± 0.2 |
| UCUAAGCAAUAUUACGUUAU | -3.25 ± 0.24 | -2.31 ± 0.27 |
| UCUAAGCAAUAUUACGUUUC |  | -2.3 ± 0.26 |
| UCUCAGCAAUAUUACGAAUC | -3.99 ± 0.39 | -2.58 ± 0.22 |
| UCUCAGCAAUAUUACGACCC |  | -1.98 ± 0.23 |

| Sequence | self-splicing fitness (ln) (30 °C) | self-splicing fitness (ln) (37 °C) |
| --- | --- | --- |
| UCUCAGCAAUAUUACGACCU | -1.84 ± 0.18 | -0.921 ± 0.22 |
| UCUCAGCAAUAUUACGAUAG | -2.43 ± 0.15 | -0.737 ± 0.15 |
| UCUCAGCAAUAUUACGAUUA | -0.806 ± 0.11 | -0.539 ± 0.12 |
| UCUCAGCAAUAUUACGAUUG | -3.43 ± 0.17 | -2.07 ± 0.17 |
| UCUCAGCAAUAUUACGCAGA | -2.73 ± 0.49 |  |
| UCUCAGCAAUAUUACGCAUC | -3.51 ± 0.21 | -2.32 ± 0.2 |
| UCUCAGCAAUAUUACGCGCC | -3.46 ± 0.25 | -1.25 ± 0.19 |
| UCUCAGCAAUAUUACGGAAG | -1.82 ± 0.18 | -2.93 ± 0.3 |
| UCUCAGCAAUAUUACGGAAU | -3.04 ± 0.26 | -1.85 ± 0.21 |
| UCUCAGCAAUAUUACGGCUU | -3.42 ± 0.2 | -3.05 ± 0.18 |
| UCUCAGCAAUAUUACGGGCC | -2.05 ± 0.2 | -1.37 ± 0.27 |
| UCUCAGCAAUAUUACGGGGA | -2.92 ± 0.21 | -1.98 ± 0.22 |
| UCUCAGCAAUAUUACGGUAU | -3.7 ± 0.21 | -3.05 ± 0.26 |
| UCUCAGCAAUAUUACGUAGA | -0.809 ± 0.091 | -0.77 ± 0.13 |
| UCUCAGCAAUAUUACGUAUU | -3.14 ± 0.2 | -2 ± 0.16 |
| UCUCAGCAAUAUUACGUCGG | -1.51 ± 0.085 | -1.22 ± 0.11 |
| UCUCAGCAAUAUUACGUGAA | -1.14 ± 0.082 | 0.314 ± 0.1 |
| UCUCAGCAAUAUUACGUUUC | -4.29 ± 0.42 | -1.97 ± 0.34 |
| UCUCAGCAAUAUUACGUUUU | -3.4 ± 0.15 | -3.25 ± 0.21 |
| UCUGAGCAAUAUUACGACGA | -0.584 ± 0.11 | 0.197 ± 0.13 |
| UCUGAGCAAUAUUACGAGUA | -2.16 ± 0.16 | -2.17 ± 0.26 |
| UCUGAGCAAUAUUACGAUCU | -3.4 ± 0.35 | -2.52 ± 0.21 |
| UCUGAGCAAUAUUACGCCGA | -1.16 ± 0.21 | 0.184 ± 0.22 |
| UCUGAGCAAUAUUACGCUGC | -2.24 ± 0.37 | -1.46 ± 0.34 |
| UCUGAGCAAUAUUACGGCUU | -2.02 ± 0.32 | -2.34 ± 0.32 |

| Sequence | self-splicing fitness (ln) (30 °C) | self-splicing fitness (ln) (37 °C) |
| --- | --- | --- |
| UCUGAGCAAUAUUACGGGUC | -4.32 ± 0.39 | -2.38 ± 0.3 |
| UCUGAGCAAUAUUACGGUCA | -2.5 ± 0.29 | -1.7 ± 0.29 |
| UCUGAGCAAUAUUACGUACG |  | -2.34 ± 0.35 |
| UCUGAGCAAUAUUACGUCAG | -1.48 ± 0.096 | -0.513 ± 0.11 |
| UCUGAGCAAUAUUACGUGAC | -2.99 ± 0.2 | -2.97 ± 0.27 |
| UCUGAGCAAUAUUACGUGGA | -2.95 ± 0.29 | -1.63 ± 0.18 |
| UCUGAGCAAUAUUACGUGGU | -2.58 ± 0.13 | -2.21 ± 0.15 |
| UCUGAGCAAUAUUACGUGUG | -2.15 ± 0.12 | -1.51 ± 0.12 |
| UCUGAGCAAUAUUACGUUUU | -4.31 ± 0.29 | -3.26 ± 0.28 |
| UCUUAGCAAUAUUACGAAAA |  | -0.128 ± 0.34 |
| UCUUAGCAAUAUUACGAAAG | -2.07 ± 0.35 | -1.12 ± 0.34 |
| UCUUAGCAAUAUUACGAACA | -0.762 ± 0.13 | -1.04 ± 0.14 |
| UCUUAGCAAUAUUACGACAU | -3.836 ± 0.034 | -2.41 ± 0.04 |
| UCUUAGCAAUAUUACGACGA | 0.0588 ± 0.29 | -1.68 ± 0.22 |
| UCUUAGCAAUAUUACGACUU | -3.52 ± 0.31 | -2.47 ± 0.31 |
| UCUUAGCAAUAUUACGAGUU | -2.85 ± 0.16 | -0.665 ± 0.15 |
| UCUUAGCAAUAUUACGAUAG | -1.77 ± 0.17 | -1.63 ± 0.16 |
| UCUUAGCAAUAUUACGAUUU | -3.07 ± 0.18 | -1.09 ± 0.13 |
| UCUUAGCAAUAUUACGCGUU | -3.83 ± 0.34 | -1.75 ± 0.2 |
| UCUUAGCAAUAUUACGCUUA |  | -1.22 ± 0.28 |
| UCUUAGCAAUAUUACGCUUU |  | -2.47 ± 0.32 |
| UCUUAGCAAUAUUACGGAAU | -4.47 ± 0.26 | -1.93 ± 0.16 |
| UCUUAGCAAUAUUACGGCCU | -3.85 ± 0.46 |  |
| UCUUAGCAAUAUUACGGCGG | -0.64 ± 0.11 | -0.0592 ± 0.13 |
| UCUUAGCAAUAUUACGGGGG | -2.89 ± 0.39 | -2.51 ± 0.3 |

| Sequence | self-splicing fitness (ln) (30 °C) | self-splicing fitness (ln) (37 °C) |
| --- | --- | --- |
| UCUUAGCAAUAUUACGGGGU | -3.44 ± 0.2 | -2.39 ± 0.28 |
| UCUUAGCAAUAUUACGGUCA | -1.71 ± 0.16 | -0.613 ± 0.16 |
| UCUUAGCAAUAUUACGGUCC | -3.99 ± 0.29 | -2.74 ± 0.43 |
| UCUUAGCAAUAUUACGGUGA | -0.481 ± 0.1 | 0.15 ± 0.1 |
| UCUUAGCAAUAUUACGGUUC | -3.68 ± 0.28 | -2.29 ± 0.23 |
| UCUUAGCAAUAUUACGUACC | -1.26 ± 0.48 | -1.53 ± 0.41 |
| UCUUAGCAAUAUUACGUACU | -2.72 ± 0.17 | -1.66 ± 0.18 |
| UCUUAGCAAUAUUACGUCAC |  | -1.9 ± 0.33 |
| UCUUAGCAAUAUUACGUCCG | -1.41 ± 0.19 | -1.59 ± 0.23 |
| UCUUAGCAAUAUUACGUCCU | -1.97 ± 0.28 | -2.7 ± 0.38 |
| UCUUAGCAAUAUUACGUUAG | -3.78 ± 0.4 | -1.17 ± 0.21 |
| UGAAAGCAAUAUUACGCCUG | -0.546 ± 0.11 | -0.244 ± 0.12 |
| UGAAAGCAAUAUUACGCGAA | -1.52 ± 0.17 | -1.05 ± 0.2 |
| UGAAAGCAAUAUUACGCGUU | -3.19 ± 0.19 | -3.1 ± 0.29 |
| UGAAAGCAAUAUUACGCUGA | -2.09 ± 0.15 | -3.15 ± 0.23 |
| UGAAAGCAAUAUUACGCUUU | -4.77 ± 0.28 | -2.53 ± 0.26 |
| UGAAAGCAAUAUUACGGAGC | -3.81 ± 0.37 | -2.81 ± 0.26 |
| UGAAAGCAAUAUUACGGAUC | -3.19 ± 0.24 | -2.83 ± 0.33 |
| UGAAAGCAAUAUUACGGCCG | -0.266 ± 0.091 | 0.807 ± 0.15 |
| UGAAAGCAAUAUUACGGGAG | -1.49 ± 0.12 | -0.515 ± 0.12 |
| UGAAAGCAAUAUUACGGGUA | -1.01 ± 0.1 | -0.387 ± 0.097 |
| UGAAAGCAAUAUUACGGUUG | -1.29 ± 0.079 | -0.865 ± 0.091 |
| UGAAAGCAAUAUUACGUAAA | -1.75 ± 0.082 | -0.9 ± 0.098 |
